{
  "source": "patent US20020192780",
  "proteins": {"B1": {"name": "TGase (Guinea pig liver, EC 2.3.2.13, Sigma) (protein)", "chain": "AEDLILERCDLQLEVNGRDHRTADLCRERLVLRRGQPFWLTLHFEGRGYEAGVDTLTFNAVTGPDPSEEAGTMARFSLSSAVEGGTWSASAVDQQDSTVSLLLSTPADAPIGLYRLSLEASTGYQGSSFVLGHFILLYNPRCPADAVYMDSDQERQEYVLTQQGFIYQGSAKFINGIPWNFGQFEDGILDICLMLLDTNPKFLKNAGQDCSRRSRPVYVGRVVSAMVNCNDDQGVLQGRWDNNYSDGVSPMSWIGSVDILRRWKDYGCQRVKYGQCWVFAAVACTVLRCLGIPTRVVTNFNSAHDQNSNLLIEYFRNESGEIEGNKSEMIWNFHCWVESWMTRPDLEPGYEGWQALDPTPQEKSEGTYCCGPVPVRAIKEGHLNVKYDAPFVFAEVNADVVNWIRQKDGSLRKSINHLVVGLKISTKSVGRDEREDITHTYKYPEGSEEEREAFVRANHLNKLATKEEAQEETGVAMRIRVGQNMTMGSDFDIFAYITNGTAESHECQLLLCARIVSYNGVLGPVCSTNDLLNLTLDPFSENSIPLHILYEKYGDYLTESNLIKVRGLLIEPAANSYVLAERDIYLENPEIKIRVLGEPKQNRKLIAEVSLKNPLPVPLLGCIFTVEGAGLTKDQKSVEVPDPVEAGEQAKVRVDLLPTEVGLHKLVVNFECDKLKAVKGYRNVIIGPA"}},
  "key": {"[1]": {"target": "PLA2 (Bovine pancreas, EC 3.1.1.4, Sigma), P00593", "sequence (P00593 23-145)": "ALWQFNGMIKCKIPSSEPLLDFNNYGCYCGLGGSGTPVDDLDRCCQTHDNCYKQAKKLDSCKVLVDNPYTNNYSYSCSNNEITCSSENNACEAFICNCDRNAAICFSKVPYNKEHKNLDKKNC"}, "SEQ ID NO:1 (KVLDPVKG)": {"target": "T1, SEQ ID NO:1 (KVLDPVKG)", "T1 chain": "KVLDPVKG"}, "SEQ ID NO:2 (KVLDGQDP)": {"target": "T2, SEQ ID NO:2 (KVLDGQDP)", "T2 chain": "KVLDGQDP"}},
  "data": [
    {"protein": "B1", "values": [
      {"measurement": "PLA2 activity", "setting": "[1]", "value": "PLA2 activity was increased about 2-fold after TGase 2 treatment"},
      {"measurement": "TGase activity (incorporation of 14C-putrescine into succinylated casein), peptide 1x10^-8 M preincubated with the enzyme", "setting": "SEQ ID NO:1 (KVLDPVKG)", "value": "significantly reduced the PLA2 and TGase activities"},
      {"measurement": "TGase activity (incorporation of 14C-putrescine into succinylated casein), peptide 1x10^-8 M preincubated with the enzyme", "setting": "SEQ ID NO:2 (KVLDGQDP)", "value": "significantly reduced the PLA2 and TGase activities"}
    ]}
  ]
}
